Measured values published in paper PMC5680235, “Identification of a peptide recognizing cerebrovascular changes in mouse models of Alzheimer’s disease” (Nature Communications, 2017).
Where no end group is shown, it is not given here. FAM = 5(6)-carboxyfluorescein label

B1: FAM-labeled DAG peptide (cyclic CDAGRKQKC) (peptide)
peptide: {FAM}-CDAGRKQKC
modifications: also: cyclic peptide, ring type not given here
notes: cyclic 9-amino acid CX7C peptide found by in vivo T7 phage display in hAPP-J20 mice; Synthesised on rink amide resin, so the C-terminus is probably an amide; the ring is probably a disulfide between the two cysteines (neither is stated for this peptide); also called FAM-DAG; source: synthetic peptide
B2: unlabeled DAG peptide (cyclic CDAGRKQKC) (peptide)
peptide: CDAGRKQKC
modifications: also: cyclic peptide, ring type not given here
notes: cyclic 9-amino acid CX7C peptide found by in vivo T7 phage display, without label; Synthesised on rink amide resin, so the C-terminus is probably an amide; also called non-labeled DAG; free DAG; source: synthetic peptide

Molecular target: T1, full-length recombinant human CTGF/CCN2 (human, UniProt P29279 27-349)
T1 construct: connective tissue growth factor (CTGF/CCN2), human, full-length recombinant; also called connective tissue growth factor; recombinant CTGF; source: bought: R&D systems (cat#9190-CC)
T1 sequence (looked up): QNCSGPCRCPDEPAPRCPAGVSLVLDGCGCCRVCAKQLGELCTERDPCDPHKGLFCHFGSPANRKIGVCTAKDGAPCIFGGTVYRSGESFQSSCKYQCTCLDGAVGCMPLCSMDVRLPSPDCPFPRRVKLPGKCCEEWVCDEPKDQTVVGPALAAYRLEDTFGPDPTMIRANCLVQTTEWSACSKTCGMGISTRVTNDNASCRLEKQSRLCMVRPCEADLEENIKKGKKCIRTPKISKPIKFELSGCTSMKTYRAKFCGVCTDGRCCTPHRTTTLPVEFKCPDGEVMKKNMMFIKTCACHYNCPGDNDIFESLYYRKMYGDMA
Test: ELISA; plate wells coated with recombinant human CTGF; FAM-peptide in 0.05% Casein/PBST overnight at 4 °C, two peptide concentrations; alone or with excess unlabeled DAG (0.6 mM); detected with anti-FITC HRP antibody, absorbance at 450 nm
Settings: both partners purified

| Binder | binding result |
| --- | --- |
| B1 | binds |
| B2 | binds |
